Measured values: article PMC4568377
“And” between values parts separate entries of the source, which are not always exact repeats. Identical values can stand only once.

Assays:
AKAP7γ-EGFP (human) = assay: photon counting histogram analysis (fluorescence fluctuation); AKAP7γ-EGFP in live HEK-293 cells, cytoplasm; two-component global fit with brightness constrained to monomeric and tandem EGFP; apparent Kd, monomer to dimer; 75 measurements from 5 cells
[1] = biological target: His/S-tagged AKAP7γ (human); assay: SPR; Biacore T100; AKAP7γ or AKAP7α amine-coupled to a CM5 chip (150 RU) in separate flow chambers; analytes AKAP7γ or AKAP7α 12.5–200 nM in HBS (10 mM Hepes pH 7.4, 150 mM NaCl, 0.005% Surfactant P20), 30 μL/min, 300 s; heterogeneous analyte model

Substance | Kd (AKAP7γ-EGFP (human)) | percent of the particles detected that are dimer (AKAP7γ-EGFP (human)) [%] | percent of the protein in the dimeric form (AKAP7γ-EGFP (human)) [%] | stoichiometry N (AKAP7γ-EGFP (human)) | KD, site 1 (heterogeneous analyte model) [1] [nM] | KD, site 2 (heterogeneous analyte model) [1] [nM]
AKAP7γ-EGFP (natural protein) | 78.8 to 126 nM and 98.4 nM | 20 | 28.7 | 2 | – | –
His/S-tagged AKAP7γ (natural protein) | – | – | – | – | 0.537 | 79.7
